Data from the nanobody polyreactivity screen of Harvey et al. (2022).

Experiment: yeast display, Sf9 membrane polyspecificity reagent, FACS + sequencing; frameworks hold sequencing errors
Procedure, shortened: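 In a synthetic yeast display library (Saccharomyces cerevisiae BJ5465), nanobody expression was induced with galactose for 36–48 hours. FACS gates were set low and high (top ~1%) using anti-HA fluorescence for expression and streptavidin fluorescence for binding of the Sf9 membrane reagent. Each polyreactivity label is drawn from the gate of origin.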

Sequence	polyreactivity (PSR sort gate)
QVQLVESGGGLVQAGGSLRLSCAASGIIFYDYAMGWYRQAPGKERELVAAITSSGGSTYYADSVKGRFTISRDNAKNTVYLQMNSLKPEDTAVYYCADATRGSGRRYDYWGQGTQVTVSS	high polyreactivity
QVQLEESGGRLVQAGGSLRLSCAASGGILRGYGMGWYRQAQGKQRELVAVISRRGGSTYYADSVKGRFTISRDNAKNTVYLQMNRLKPEVTAVYYCAADLKTGFLEYDYWGQGTQVTVSS	high polyreactivity
QVQLVESGGGLVQAGGSLRLSCAASGRTFYANAMGWYRQAPGKERELVAAISTGGDGTYYADSVKGRFTISRDNAKKTVYLQMNSLKPEDTAVYYCAVRHRASGILYDYWGQGTQVTVSS	low polyreactivity
QVQLVESGGGLVQAGGSLRLSCAASGRTFFGNAKGWYRQAPGKERELVASISTRGGSTYYADSVKGRFTISRDNAKNTVYLQMNSLKPEDTAVYYCAKRGRDRRIYGYWGQGTQVTVSS	high polyreactivity
QVQLVESGGGLVQAGGSLRLSCAASGRPFKRYAMGWYRQAPGKEREVVAAITASGGNTYYADSVKGRFTISRDNAKNTVYLQMNSLKPEDTAVYYCARGSYSGGSKYNYWGQGTQVTVSS	high polyreactivity
QDQLVESGGGLVQAGGSLRLSCAASGSTFGYYAMGWYRQAPGKERELVAAITSGASTNYADSVKGRFTISRDNAKNTVYLQMNSLKPEDTAVYYCAAGFQTRTPLNEFDYWGQGTQVTVSS	low polyreactivity
QVQLVESGGGLVQAGGSLRLSCAASGSIFQGYAMGWYRQAPGKERELVAAITYSGGRTYYADSVKGRFTISRDNAKNTVYLQMNSLKPEDTAVYYCAALTRRVKKYDYWGQGTQVTVSS	high polyreactivity
QLQLVESGGGLVQAGGSLRLSCAASGIIFDFYAMGWYRQAPGKERELVAAITSSGGSTYYADSVKGRFTISRDNAKNTVYLQMNSLKPEDTAVYYCAADPWFYGYYDMDYWGQGTQVTVSS	low polyreactivity
QVQLGESGGGLVQAGGSLRLSCAASGITFRWYAMGWYRQAPGKERELVAAITSVDSTDYADSVKGRFTISRDNAKNTVYLQMNSLKPEDTAVYYCAAQPYDWFYYYYVIFPHYEYWGQGTQVTVSS	low polyreactivity
QVQLVESGGGLVQAGGSLRLSCAASGRTFQTNDMGWYRQAPGKERELVAAISRRGGSTYYADSVKGRFTISRDNAKNTVYLQMNSLKPEDTAVYYCAATRLSRYEYWGQGTQVTVSS	low polyreactivity
QVLLVESGGGLVQAGGSLRLSCAASGSTFPGNAMGWYRQAPGKERELVARINDGADTNYADSVKGRFTISRDNAKNTVNLQMNSLKPEDTAVYYCATPYYDGRTHFDSWGQGTQVTVSS	low polyreactivity
QVQLVESGGGLVQAGGSLRLSCAASGSILRLYVMGWYRQAPGKERELVADISDRGGSTYYADSVKGRFTISRDNAKNTVYLQMNSLKPEDTAVYYCAAEWGQSGGGGYYYWGQGTQVTVSS	low polyreactivity
QVQLVESGGGLVQAGGSHRLSCAASGSIFTINPMGWYRQAPGKERELVAAIRSGGGTNYADSVKGRFTISRDNAKNTVYLQMISLKPEDTAVYYCAADLWAGKYGEYDYWGQGTQVTVSS	high polyreactivity
QVQLVESGGGVVQAGGSLRLSCAGSGFIFSYYTMGWYRQAPGKERELVAAITSGGSTNYADSVKGRFTISRDNAKNTVYLQMNSLKPEDTAVYYCNALLWAWTLWGSGYDYWGQGTQVTVSS	low polyreactivity
QVQLVESGGGIVQAGGSLRLSCAASGSTFGVYAMGWYRQAPGKERDLVSVIRRGGGTDYADSVKGRFTISRDNAKNTVYLQMNSLNPEVTAVYYCAATVVRSGYLTLEMDYWGQGTQVTVSS	low polyreactivity
QVQLVESGGGLVQAGGRLRLSCAASGSIFCVNAMGWSRQAPGKERELVATITGSSGITYYADSVKGRFTISRVNAKNTVYLQMNSVKPEDTAVYYCAAVLLKFAYNYNYWGQGTQVTVSS	low polyreactivity
QVQLVESGGGLVQAGGSLRLSCAASGFTFYRYAMGWYRQAPGKERELVAALSGSGGSTYYADSVKGPFTISRDNAKTTVYLQMNSLNPEDTAVYYCNTVWFYGAKYDYWGQGTQVTVSS	high polyreactivity
QVQLVESGGGLVHAGGSLRLSCAASGSFFRSYAMGWYRQAPGKEMEWVATISSSTGSTYYADSVKGRFTISRDNAKNTVYLQMNSLKPEDTSVYYCAAVQPVKSCSGYHFWYYWGQGTQVTVSS	high polyreactivity
QVQLVESGGGLVQAGGSLRLSCAASGRTFGGYTMGWYRKAPGKERELVAAISKRGGSTYYADSVKGRFTISRDNAKNTVYLQMNSLKPEDTAVYYCARDVRTVIVSTGYDYWGQGTQVTVSS	high polyreactivity
QVQLVESGGGLVQAGGSLRLSCAASGSTTHYYAMGWYRQAPGKEWELVASITWSVGSTYYADSVKGRFTISRDNAKNTVYLQMNSLKPEVTAVYYCAGRPFPRRYDYWGQGTQVTVSS	low polyreactivity
QVQLVESGGGLVQAGGSLRLSCAASGRTFVPYAMGWYRQAPGKERELVATITSAGSTYYADSVKGRFTISRDNAKNTVYLQMNSLKPEDTAVYYCNARYYSRRWPYDYWGQGTQVTVSS	high polyreactivity
QVQLEESGGGLVQAGGSLRLSCAASGLTFVQYTMGWYRQAPGKERELVAVITSASSTNYADSVKGRFTISRDNAKNTVYLQMNSLKPEDPAVYYCNATTYPYYTNSYQYEYWGQGTQVTVSS	low polyreactivity

Sequence	polyreactivity (PSR sort gate)
QVQLVESGGGLVQAGGSLRLSCAASGFIFQKYAMGWYRQAPGKERELVAAISRSGGSTYYADSVKGRFTISRDNAKNTDYLQMNSLKPEDTAVYYCAARYKGRAFWMDYWGQGTQVTVSS	high polyreactivity
QVQLVESGGGLVQAGGSLRLSCAASGSTLFINAMGWYRQAPGKERELVAAITSGTSTNYADSVKGRFTISRDNAKNTVYLQMNSLKPEDTAVYYCAVDYWYVPYYWGQGTQVTVSS	low polyreactivity
QVQLVESGGGLVQAGGSLRLSCAASGRIFVWNAMGWYRQAPGKERELVAAITSSGGNTYYADSVKGRFTISRDNAKNTVYLQMNSLKPEDTAVYYCAARSSSRTQATTRYGYWGQGTQVTVSS	high polyreactivity
QVQLVESGGGLVQAGGSLRLSCAASGSTFGYNAMGWYRQAPGKEREFVATIRYSGDRTYYADSVKGRFTISRDNAKNTVYLQMNSLKPEDTAVYYCAADLYYNSYGRYGRYYYWGQGTQVTVSS	high polyreactivity
QVQLVESGGGLVQAGGSLRLSCAASGSTFYNNAMGWYRQAPGKERELVAAITASGGRTYYADSVKGRFTISRDNAKNTVYLQMNSLKPEDTAVYYCAADGHAGYPIDEYYYWGQGTQVTVSS	high polyreactivity
QVQLVESGGGLVQAGGSLRLSCAASGSIFPGYTMGWYRQAPGKESELVAAITSSGGSTYYADSVKGRITISRDNAKNTVYLQMNSLKPEDTSVYYCAADTTNYFVPFDYWGLGTQVTVSS	low polyreactivity
QVQLVESGGGLVQAGGSLRLSCAASGAIFGAITMGWYREAPGKERELVAAISKRGGSTYYADSVKGRFTSSRDNAKNTVYLQMNSLKPEDTAVYYCNATPRYLRQYVDPNWGYDYWGQGTQVTVSS	low polyreactivity
QVQLVESGGGLVQAGGSLRLSCGASGRTFRRYAIGWYRQAPGKERELVATITSNGGSTYYADSVKGRFTISRDNAKNTVDLQLNSLTPEDTAVYYCARDLTYYRSRYDYWGQGTQVTVSS	high polyreactivity
QVQLVESGGGLVQAGGSLRLSCAASGYIFSVNAMGWYRQAPGKERELVAAIRGSGGSTFYADSVKGRFTISRDNAKNTVYLQMNSLKPEDTAVYYCAAYWRGRYDYWGQGTQVTVSS	low polyreactivity
QVQLVESGGGLVQAGGSLRLSCAASGITFRFYAMGWYRQAPGKERELVAVISRGGGTTYYADSVKGRFTISRDNAKNTVYLHMNSLKPEDTAVYYCNAVIAWYRSDEYDYWGQGTQVTVSS	high polyreactivity
QVQLVESGGGLVQAGGSLRLSCDASGRILTSNAMGWYRQPPGKERELVAAISWSGGSTYYADSVKGRFTISRDNAKNTVYLQMNSLKPEDTAVYYCAAPFTTTFDYWGQGTQVTVSS	low polyreactivity
QVQLVESGGGLVQAGGSLRLSCAASGRTSAIYDMGWYRQAPGKERDLVAAIDYSDGSTYYADSVKGRFTISRDNAKYTVYLQMNSLKPEDTAVYYCAADYDAIYLWWGYDYWGQGTQLTVSS	low polyreactivity
QVQLVESGGGLVQAGGSLRFSCAASGGTFWYYAMGWYRQAPGKERELDASISRGGSTNYADSVKGRFTISRDNAKNTVYLQMNSLKPEDTAVYYCIAGLRVGPRRYVDYEYDYWGQGTQVTVSS	low polyreactivity
QVQLVETGGGLVQAGGSLRLSCAASGRIFRGNTMGWYRQAPGKERELVAAISWRGGRTYYADSVKWRFTISRDNAKNTVYLQMISLKPEDTAVYYCNAVYFQTGVYGYGDYDSWGQGTQVTVSS	low polyreactivity
QVQLVESGGCLVQAGGSLGLSCAASGFSFLEYAKGWYRQAPGKERELVAVISRRGGRTYYADSVKGRFTISRDNAKITVFLQMNSLNPEDTEVYYWNARISGCVWHYDYWGQGTQVTVSS	high polyreactivity
QDQLVESGGGLVQAGGSLRLSCAASGGIFKSNTMGWDRTAHGKERELVAAITYSDGGTYYADSVKGRFTISRDNAKNTVYLQMNSLTPEDTAVYYCAVDYDTFYWHHYPGEIDHWGQGTQVNVSS	low polyreactivity
QVQLVESGGGLVQAGGSLRLSCAASGFIFVKYAMGWNRQAPGKERELVAAITNGCSTYYADSVKGRFTISRDNAKNTVYLQMNSLKPEDTAVYYCAAGHPEYDFWGQGTQVTVSS	low polyreactivity
QVQIVESGGGLVQAGGSLRLSCAASGSTFPYNAMVWYRKEPGKERELVAVITTVGSTYYADSVKGRFTISRDNAKNTVYLQMNSLKPEDTAVYYCAAANTQSPGYDYWGQGTQVTVSS	low polyreactivity
QVQLVESGGGLVQAGGSLRLSCAASGRIFGINALGWYRQAPGKERELVAAISSADSTYADSVKGRFTISRDNAKNTVFLQMYSLNPEDTAVYNCRNDYWGQGTQVTVSS	low polyreactivity
QVQLVESGGVLVQAGGSLRLSCAAMGWYRQAPGKERELVATITWSGGSTYYADSVKGRFTISRDNAKNTVYLQMNSLKPEDTAVYYCNSRATLLSPANTIRGYDYWGQGTQVTVSS	low polyreactivity
QVQLVESGGRIFQAGGSLRLSCAASGLIFPYYVMGWYRQAPGKERELVADITWSGGRTYYADSVKGRFTISRDNAKNTVYLQMNSLKPEDTSVYYCKAETGGVYDNYYYVGEYYFWGQGTQVTVSS	low polyreactivity
